This is an account of results in patent publication US20120270271A1 (University of Washington, published 2012).

The target in the experiment is T1, Tse2 (type VI secretion exported protein 2) with glycogen synthase kinase (GSK) tag (Pseudomonas aeruginosa PAO1, UniProt Q9I0E0 1-158).
T1 construct: Toxin as detected in the co-immunoprecipitation in P. aeruginosa lysate; it is placed last here only by default; also called PA2702; not shown: GSK tag used for detection
T1 sequence: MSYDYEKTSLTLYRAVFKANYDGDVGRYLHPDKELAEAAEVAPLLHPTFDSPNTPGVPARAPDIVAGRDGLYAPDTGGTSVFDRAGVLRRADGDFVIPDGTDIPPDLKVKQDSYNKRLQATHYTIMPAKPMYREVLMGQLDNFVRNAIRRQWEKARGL
Description: co-immunoprecipitation from P. aeruginosa lysate with anti-VSV-G agarose beads, Western blot for GSK-tagged Tse2. (In general: In western blotting, separated proteins are transferred to a membrane and probed.)

B1: Tsi2-V (type VI secretion immunity protein 2 fused to the vesicular stomatitis virus G epitope) (other)
chain: MNLKPQTLMVAIQCVAARTRELDAQLQNDDPQNAAELEQLLVGYDLAADDLKNAYEQALGQYSGLPPYDRLIEEPAS
For the molecule B1, the binding result is recorded as “binds”.
